Experimental data reported in paper PMC7846742.

B1: His6-ODC-Ctag (human Ornithine Decarboxylase) (enzyme)
chain: NNFGNEEFDCHFLDEGFTAKDILDQKINEVSSSDDKDAFYVADLGDILKKHLRWLKALPRVTPFYAVKCNDSKAIVKTLAATGTGFDCASKTEIQLVQSLGVPPERIIYANPCKQVSQIKYAANNGVQMMTFDSEVELMKVARAHPKAKLVLRIATDDSKAVCRLSVKFGATLRTSRLLLERAKELNIDVVGVSFHVGSGCTDPETFVQAISDARCVFDMGAEVGFSMYLLDIGGGFPGSEDVKLKFEEITGVINPALDKYFPSDSGVRIIAEPGRYYVASAFTLAVNIIAKKIVLKEQTGSDDEDESSEQTFMYYVNDGVYGSFNCILYDHAHVKPLLQKRPKPDEKYYSSSIWGPTCDGLDRIVERCDLPEMHVGDWMLFENMGAYTVAAASTFNGFQRPTIYYVMSGPAWQLMQQFQ
B2: ODC ΔN ΔC 4KR with K92 re-introduced (enzyme)
chain: DCHFLDEGFTAKDILDQKINEVSSSDDKDAFYVADLGDILKKHLRWLKALPRVTPFYAVKCNDSRAIVRTLAATGTGFDCASKTEIQLVQSLGVPPERIIYANPCKQVSQIRYAANNGVQMMTFDSEVELMKVARAHPKAKLVLRIATDDSKAVCRLSVKFGATLRTSRLLLERAKELNIDVVGVSFHVGSGCTDPETFVQAISDARCVFDMGAEVGFSMYLLDIGGGFPGSEDVKLKFEEITGVINPALDKYFPSDSGVRIIAEPGRYYVASAFTLAVNIIAKKIVLKEQTGSDDEDESSEQTFMYYVNDGVYGSFNCILYDHAHVKPLLQKRPKPDEKYYSSSIWGPTCDGLDRIVERCDLPEMHVGDWMLFENMGAYTVAAASTFNGFQRPTIYYVMSGPAWQLMQQFQ

Tests used:
[1] = target: His6-OAZ-GSY-SPM-Ctag (human | Neisseria meningitidis serogroup B (strain MC58)) (UniProt Q9JYV5); experiment: cross-linking; NeissLock: Ca2+-induced aspartic anhydride on OAZ reacts with the docked partner; purified proteins mixed at 10 µM each or as indicated (AZI 2.5 µM each; Fig. 4b 0.5 µM each; 30 µM ODC with 10 µM OAZ-Y-SPM), 37 °C, HBS pH 7.4 with 2 mM TCEP, 10 mM CaCl2 unless varied (pH 6.5-8.5, 0.5-10 mM Ca2+, TBS, lyophilised probe); SDS-PAGE with Coomassie, intact ESI-MS, tryptic LC-MS/MS
[2] = target: AviTag-His6-OAZ-GSY-SPM-Ctag (wt, with C175A) (human | Neisseria meningitidis serogroup B (strain MC58)) (UniProt Q9JYV5); experiment: SPR; Biacore T200; biotinylated AviTag-OAZ-GSY-SPM variants immobilised with the Biotin CAPture Kit, ODC flowed over; HBS with 2 mM TCEP and 0.02 mM PLP; 25 °C; 1:1 binding model

Binder	coupling yield after 2 h, lyophilized OAZ-GSY-SPM [1]	coupling yield after 2 h, untreated control [1]	coupling yield at 0.5 mM Ca2+ compared to 10 mM Ca2+ after 2 h [1]	coupling yield in TBS compared to HBS after 2 h [1]	half-time of the conjugation reaction at pH 7.0 [1]	Kd [2]	conjugation compared to wild-type ODC [1]
B1	51%	48%	78%	95%	< 2 min	120 nM	
B2							89%
